Assay results published in US20250026856A1 (UCB, published 2025).

T1: human transglutaminase type 2 (TG2) (human, UniProt P21980 2-687)
T1 sequence: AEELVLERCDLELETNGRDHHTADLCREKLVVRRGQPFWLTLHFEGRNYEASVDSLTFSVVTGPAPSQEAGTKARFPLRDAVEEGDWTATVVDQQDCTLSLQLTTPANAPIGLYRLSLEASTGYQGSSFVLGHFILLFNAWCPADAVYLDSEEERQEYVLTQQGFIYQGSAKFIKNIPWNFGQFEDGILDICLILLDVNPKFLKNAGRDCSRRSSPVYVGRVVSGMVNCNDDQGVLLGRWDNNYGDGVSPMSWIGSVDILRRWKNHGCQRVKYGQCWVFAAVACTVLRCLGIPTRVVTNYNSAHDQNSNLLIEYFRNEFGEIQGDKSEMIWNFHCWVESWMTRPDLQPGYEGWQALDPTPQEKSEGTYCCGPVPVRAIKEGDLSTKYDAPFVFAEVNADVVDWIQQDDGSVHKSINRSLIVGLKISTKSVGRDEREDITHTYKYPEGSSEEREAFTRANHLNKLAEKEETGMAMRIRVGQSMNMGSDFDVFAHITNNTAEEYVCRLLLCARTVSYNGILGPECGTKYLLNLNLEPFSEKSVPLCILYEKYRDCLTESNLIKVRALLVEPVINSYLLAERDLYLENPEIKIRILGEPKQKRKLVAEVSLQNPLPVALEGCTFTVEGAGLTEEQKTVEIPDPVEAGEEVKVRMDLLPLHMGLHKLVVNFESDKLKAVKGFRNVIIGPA


Tests used:
[1] = target: T1, human transglutaminase type 2 (TG2); assay: cell-based or functional assay
[2] = target: rabbit TG2 (rabbit); assay: cell-based or functional assay

Row | IC50 against human TG2 [1] [nM] | IC50 against rabbit TG2 [2] [nM] | Binder
1 | 0.3 | 8 | rbBB7 (antibody, V domains shown) VH: EVQLLESGGRLVTPGGSLTLTCAASGIIFSSSAMSWVRQAPGKGLEWVATISSGGRSTYYPDSVKGRFTVSRDSSKNTLYLQMNSLRAEDTAVYYCAKLISPYWGQGTLVTVSS VL: AIKMTQTPSSVSAAVGGTVTISCKASQDINSYLTWFQQKPGQPPKTLIYLTNRLMDGVPSRFSGSGSGQEFLLTISGLECDDAATYYCLQYVDFPYTFGGGTKVVVK
2 | 0.25 | 103 | Zampilimab (antibody, V domains shown) VH: EVQLLESGGGLVQPGGSLRLSCAASGFTLSTHAMSWVRQAPGKGLEWVATISSGGRSTYYPDSVKGRFTISRDNSKNTLYLQMNSLRAEDTAVYFCARLISTYWGQGTLVTVSS VL: DITMTQSPSSLSASVGDRVTITCKASQDINSYLTWFQQKPGKAPKILIYLVNRLVDGVPSRFSGSGSGQDYALTISSLQPEDFATYYCLQYDDFPYTFGQGTKVEIK
